# Values of other authors, collected in PMC6933782 (ACS Omega, 2019).
# Conditions: ref 26 (Jagoda et al., 2015)
substance,measurement,setting,value
"^18F-labeled RSA: ^18F-labeled rat serum albumin (RSA), literature, ref 26",retention of uptake in the heart and peripheral vasculature,"PET, up to stated time postinjection",up to 2.5 h
same,uptake in PET,,uptake in the heart and peripheral vasculature
